Test system: K4 kissing-loop RNA reporter
Experiment: apparent KD of K4 kissing-loop reporter; higher = weaker reporter binding
Settings: Eterna round: R107
Experimental: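 RNA-MaP round R107: designed RNA switches with theophylline, tryptophan, arginine or FMN aptamers are transcribed on-chip within common flanks. They are titrated with a labelled K4 kissing-loop RNA reporter in RNA-MaP buffer (100 mM Tris pH 7.5, 80 mM KCl, 4 mM MgCl2), without ligand or with the indicated ligand. Median apparent KD per design.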

[1] = input ligand: theophylline 20 uM
[2] = input ligand: tryptophan 2.4 mM
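Note: bound reporter read as fluorescence of individual clusters on recovered sequencing chips by microscopy, with normalized cluster intensities fitted with a binding model.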

Row | Sequence | apparent KD of K4 kissing-loop reporter (input ligand: FMN 200 uM) [µM] | apparent KD of K4 kissing-loop reporter (input ligand: arginine 13.2 mM) [µM] | apparent KD of K4 kissing-loop reporter (input ligand: none) [µM] | apparent KD of K4 kissing-loop reporter [1] [µM] | apparent KD of K4 kissing-loop reporter [2] [µM]
1 | AUGUAUGAAUUAGGAUAUCGUGAGCCUUGCAUAUAUAUGAUAAAUGGAUAUGUCGUAGUGAUGUUACGAGAAGGAGUGUGGAGUA [KL-XFMN-B4] | 0.045 | 0.0616 | 0.0455 | 0.0712 | 0.0391
2 | CUCGAGUGAUGUUCCUUUAUUUAUACAGAUACCAGUGAAUUUUAACACCCUUGGCAGCUGGUUGUAUCUUUGUUUUUUACACAUG [JR_Nu_ExcTheophyA_Sub025] | 0.204 | 0.128 | 0.205 | 0.27 | 0.155
3 | UCCUGCAAUGGACCACGAAAGUGGAUCGAUACCAGAGUCGAAAGACUCCCUUGGCAGCGAGUGAUGUUCGAAGCAGGUAAAUAAA [#SwitchBubble 21 #K4Late] | 0.492 | 0.483 | 0.478 | 0.41 | 0.358
4 | AGCGACUCUUCGGAGUCGCGGCUAAGGGAUACCAGUGAUGUUGGUCACCCUUGGCAGCCCAGAAGCCAAGCCACCAAAGGUGGCA [Omei KL Theo A Exc A v5] | 0.104 | 0.0986 | 0.111 | 0.114 | 0.113
5 | AAUGAUCGUAUGGCGAGGUACUCGUGUUCGAAGGAUAUUAAUAGAAUAAGAAGGUCGAAAUCGUGUCUGGAAGUGAUGUUUCCAU [theeternabot_sameState_KL_FMN_A_32] | 0.111 | 0.106 | 0.106 | 0.123 | 0.0896
6 | UAUAUAUGAUGUGAUACCAGUGAAAAGCCAGUGAUGUUGGUAGAACUGGUAUAUAAAUGGCACCCUUGGCAGCACAAUCACGUAU [#28 K4 Theophylline B Exclusion] | 0.119 | 0.108 | 0.114 | 0.12 | 0.117
7 | GCCGUACGCAUGGAUACCAGUCAAGAUCAGUGAUGUUGAUCUUUUAUAGAGCCUUCAUUAGACCCUUGGCAGCCAUGCGUACGGC | 0.429 | 0.237 | 0.391 | 0.373 | 0.25
8 | AGACUACCACACUGUCAAUAGACAGUGAGCUAGGAUAUGCUGAUAAGCAGAAGGAGUGAUGUUCCUUGGUAGUCAAUAAAAUAAU [FmnAX 13 G29+U67] | 0.366 | 0.271 | 0.285 | 0.319 | 0.28
9 | AAACGUUGGUCGGAUACCAGCUUGAUCGGAAAACGAUCUGCUGGAGUGAUGUUCCAAUAAAGCCCUUGGCAGCCGACCGACGAAA [MAT - Same State Theophlline B - Mod of Eli - D15] | 0.662 | 0.659 | 1.03 | 0.746 | 0.747
10 | UUUUUCGCGUUUGAUACCAGCAGAGUUGUUCGUGUCUGGAGCGUGAGUGAUGUUCAUGUCUGCCCUUGGCAGCAAACGGGAGAAG [KL-XTheo-B14] | 0.137 | 0.113 | 0.123 | 0.0971 | 0.134
11 | AUGCGCGCGGCGGCCGCCACUCGCAUGAGAGUGAUGUUCUCACCGUGACCGUAAGGUCGCGGUGUGAGGACCGGGCCGGGCUGCG [#2 Same State - Tryptophan B Attempt #23 (HarryS)] | 0.0284 | 0.0727 | 0.245 | 0.281 | 0.118
12 | ACGACGGCAGCUCAGUGAUGUUGGGCAUUACGAGGACCGGUACGGCCGCCACUCGCUGCUUUGAUCCGUGGAUGAACCUCAGCAU [theeternabot_sameState_KL_Trp_A_13] | 0.576 | 0.464 | 0.601 | 0.734 | 0.402
13 | CACUUACGUAGUGAUGUUACGAUCUCUGAUACCAGACAACUCUAAGUCCCUUGGCAGCAGUCAUUUUGCUUAUAAUUUACUCAAA [JR_ExcTheophyA_Sub015] | 0.657 | 0.556 | 0.786 | 0.646 | 0.508
14 | GCGAACAUUCGCAGUGAUGUUGCGACGGAAGGAGCGCGUGAAAACGCAGGUAGGUCGCCGACAUACUUAAUUUUACAGUGUUCGC [Arginine A K4 29] | 0.268 | 0.191 | 0.294 | 0.247 | 0.194
15 | GGUCGCCUGAGCAGUGAUGUUGCAAGGGAAGGAGCGCGUUUUUUCGCAGGUAGGUCGCCCAAAUAAUAAGUUAAACUAGGCGACC [4.)] | 0.221 | 0.144 | 0.149 | 0.316 | 0.205
16 | UAGGAGUGAUGUUCCUUUAGCAGGUAGGAAGGAGCGCCCAUUUGGGCAGGUAGGUCGCCUACUGGCCCUGAGUUAAACCUUAGGC [#11 K4 Arginine A Same State] | 0.149 | 0.181 | 0.15 | 0.207 | 0.127
17 | UUCUUGAUGGAAACAUCGAGGAUUACUGAUACCAGUAUCGAUAGAUACCCUUGGCAGCAGAAUCAGUGAUCACGAGUGAUGUUCG [Ex Theophylline A K4 10] | 0.655 | 0.551 | 0.733 | 0.564 | 0.569
18 | AGGCCGAGCCAAGGAUAUUGUCAGAGUGAUGUUCGCCAAUACUCCAGCCGCGCCUCAUCAGCUGAGCAAGAAGGUGGUCCUCUCA [theeternabot_exclusion_KL_FMN_B_47] | 0.244 | 0.199 | 0.221 | 0.207 | 0.209
19 | GGAUCCACCAGUGAUGUUGGAGAAAACUCGAAGGAUAUGACGAAAGUCAGAAGGUUGUAGACUGGACAAAGUCCGGUCGGAUCCA [FmnA 23 G30+U56] | 0.843 | 0.466 | 0.549 | 0.59 | 0.421
20 | CCGUCGACAAGCGCCAUCGUCUACGUCAAUAAGGAUAUCAUCAAGGUGAGAAGGUAUGACAACCGGAGUGAUGUUCCAGGGCGAA [theeternabot_sameState_KL_FMN_A_5] | 0.506 | 0.362 | 0.367 | 0.304 | 0.346
21 | UAAUAAAUUCCAGCGAUAUCGCUCUUCGAAGGAGCGGACGAAAGUCCAGGUAGGUCGCGAAGAGUGAUGUUCUUUGCGGCGCUGG [Omei KL Arginine A Exc A v4] | 0.207 | 0.18 | 0.262 | 0.32 | 0.226

Row | Sequence | apparent KD of K4 kissing-loop reporter (input ligand: FMN 200 uM) [µM] | apparent KD of K4 kissing-loop reporter (input ligand: arginine 13.2 mM) [µM] | apparent KD of K4 kissing-loop reporter (input ligand: none) [µM] | apparent KD of K4 kissing-loop reporter [1] [µM] | apparent KD of K4 kissing-loop reporter [2] [µM]
22 | AGACGCCAGUCGGCCGCCACUCACAGCAGUGAUGUUGCUGAAAAUCUAGAAGAGUGAUGUUCUUAGAGGACCGGGACUCCAGUCG [Same State Tryptophan B GF 6] | 0.162 | 0.153 | 0.169 | 0.141 | 0.172
23 | AAACAUCACUGGGAGUGAUGUUCUCAGUGACGAGGACCGGUACGGCCGCCACUCGCGAGAGAUAUAGAUAAGUAAUGACAUCAUU [Excl Tryptophan A V4] | 0.347 | 0.298 | 0.354 | 0.39 | 0.433
24 | AAACGCUGGAUGAAUAACAUCUAGCGAAUUCGAGGACCGGUACGGCCGCCACUCGAGCUAACUGCGAGUGAUGUUCGAUAAUAAA [Mat - Mod of OpenEnded 3 - D1] | 0.306 | 0.451 | 0.441 | 0.524 | 0.0809
25 | GCGCGCGUUUUAGAUACCAGCCAGUGAUGUUGGCGAGGAUUCUGGAGCGUAGUGUCAAAUGGCCCUUGGCAGCUAACACGCGGCU [Zabea] | 0.117 | 0.108 | 0.119 | 0.134 | 0.123
26 | CUUCAGAUCUGAAGGAGCGCGUUACCAGAAUGCAUCAUAGAGCAGUGAUGUUGCUCUGGAUCGCAGGUAGGUCGCAGAUCUGACG [Arg B Ex t7b] | 0.196 | 0.189 | 0.189 | 0.156 | 0.195
27 | UGGAGGAGUGAUGUUCCCGAAACAUGAGAUACCAGCGUCACAGUCCGCCCUUGGCAGCUCGGUCCAAUUUGCCUCGCGGGUAAUG [theeternabot_sameState_KL_Theo_A_23] | 0.244 | 0.251 | 0.299 | 0.257 | 0.182
28 | GCAGUGAUGUUGCACGAGUAGGGUAGAGUGCGAGGACCGGUACGGCCGCCACUCGUAUGGAACUCGCUAAUUUAUGGAAUGGUGA [whbob_SS_tryp_A] | 0.791 | 0.828 | 1.02 | 0.92 | 0.575
29 | UAUGGCGAGGGCCGCAUAUCAUUAAACCAGAAGGAUAUAUGUUACUAUAGAAGGUCUGCCGCUGCGAGUGAUGUUUGGAGUGAUC [theeternabot_sameState_KL_FMN_A_3] | 0.326 | 0.195 | 0.26 | 0.242 | 0.229
30 | UCCUAGGCUCGAAAGAGCCUAGGUAAGACUCAGGAUAUCUGGAAACAGAGAAGGGAGCUACUAGUGAUGUUAGGAAUUCCCUAAG | 0.126 | 0.097 | 0.124 | 0.119 | 0.106
31 | AAUGCAUAGUGAAGGAGCGCGUAUAGCAGUGAUGUUGCUUACUUAUUAUUAUAUUAAUUGACGCAGGUAGGUCGCACUUUGCAUA [JR_ExcArginiB_Sub022] | 0.196 | 0.144 | 0.196 | 0.181 | 0.156
32 | GUUACGCAUGGAAGGAGCGCGAUAAUAUUAAGUGAGUGAUGUUCACAAAGAAAAUAAAUAACGCAGGUAGGUCGCCAUGUGUAAC [Ex Arginine B K4 4] | 0.0793 | 0.0931 | 0.0808 | 0.0978 | 0.0818
33 | AGAUUCGACACGGCCGCCACUCGUGGUGGAUUACCGAGUGUCGAAGUUGAGUGAUGUUCAAGUACGAGGACCGGGUGUUGAGUCU [KL-XTryp-B9 #analogue] | 0.193 | 0.204 | 0.198 | 0.163 | 0.435
34 | GACUGGUUAACAGAUACCAGCCACAAGCGUUGAGGCGGCGGUAAAGUGAUGUUUUAUAAAGGCCCUUGGCAGCUGACUAGUUCGU [theeternabot_exclusion_KL_Theo_B_28] | 0.371 | 0.387 | 0.383 | 0.381 | 0.324
35 | AGCUCAGAGUGACUCGAUAAGAGUCACAAACGAGGACCGGUACGGCCGCCACUCGAAAUAACGAGAGUGAUGUUCUUGCUGAGCA [FiskerMod 7 - Jieux - Same State Tryptophan A] | 1.32 | 0.487 | 0.976 | 0.631 | 0.386
36 | GCCGUACGCAUGGAUACCAGCUUGUCCGAGUGAUGUUCGGGUCUGAAUGCCGGUAAUAAGAGCCCUUGGCAGCCAUGCGUACGGC | 0.137 | 0.104 | 0.124 | 0.117 | 0.123
37 | UGUGGAGGAUAUGAUACCAGCAGUGAGAGAGAGGAAGUAUAGUGAUGUUAUAUGAGAGAAUGCCCUUGGCAGCGUGUGUAGUAGG [SSTheophylB.J] | 0.189 | 0.165 | 0.2 | 0.153 | 0.21
38 | UGGCGAGUGAUGUUCGUUGUUGUUGUGUGUCGAGGACCGGUACGGCCGCCACUCGAGUUGGUUGUUGUUGUUGCUGUUGUUGCUG [#04 K4 Tryptophan A Same State] | 0.158 | 0.124 | 0.155 | 0.131 | 0.0876
39 | CGGCGCGGCGCGGCCGCCACUGCGCCUGGGCGCUCGCCGAGUGAUGUUCGUCGGCGGUCGGGUGGCAGGACCGGGUGCCGGCCCG [BDazzled - #20 SS Tryptophan B] | 0.295 | 0.227 | 0.217 | 0.169 | 0.141
40 | GGAGGGAUCUCGGCCGCCACUCAUAAGAAAUGGGCCUCAGGGAUAUAGUGAUGUUAUGUAAAGAAGAGGACCGGGAGAAAGAAGG [ExTryptoB.Dc] | 0.263 | 0.245 | 0.248 | 0.348 | 0.175
41 | AUAUUGGUUGAGAGUGAUGUUCCUUGUGUUCGAGGACCGGUACGGCCGCCACUCGGGUAGAAAAUAAAAGAUAUGUUUGAUUUUU [BDazzled - #12 SS Tryptophan A] | 0.162 | 0.0291 | 0.242 | 0.943 | 0.279
42 | GCAAGAGAGUGAUGUUGUUUUGAUCAGGGCAAGGAUAUGCUAUAUAGCAGAAGGUGCCGUUUUCUGCUGGCUUUCGUUACCCAUU [theeternabot_exclusion_KL_FMN_A_6] | 0.75 | 0.605 | 0.865 | 0.99 | 0.708

Source: the supplement of paper PMC9170038
